B1: GpH7-A5/GpH7-B3 variant I336_11K/GpL16-k0 (antibody, human IgG1, kappa)
heavy 1: not shown
heavy 2: not shown
light: DIVMTQSPLSLPVTPGEPASISCQASESLVHSNRNTYLHWYLQKPGQSPQLLIYKVSNRFSGVPDRFSGSGSGTDFTLKISRVEAEDVGVYYCSQNTHVPPTFGQGTKVEIERTVAAPSVFIFPPSDEQLKSGTASVVCLLNNFYPREAKVQWKVDNALQSGNSQESVTEQDSKDSTYSLSSTLTLSKADYEKHKVYACEVTHQGLSSPVTKSFNRGEC
notes: copies: 1 + 1 + 2
B2: GpH7-A5/GpH7-B3 variant K326_07I/GpL16-k0 (antibody, human IgG1, kappa)
heavy 1: not shown
heavy 2: not shown
light: B1 light
notes: copies: 1 + 1 + 2
B3: GpH7-A5/GpH7-B3 variant K334_10E/GpL16-k0 (antibody, human IgG1, kappa)
heavy 1: not shown
heavy 2: not shown
light: B1 light
notes: copies: 1 + 1 + 2
B4: GpH7-A5/GpH7-B3 variant L234_04F/GpL16-k0 (antibody, human IgG1, kappa)
heavy 1: not shown
heavy 2: not shown
light: B1 light
notes: copies: 1 + 1 + 2
B5: GpH7-A5/GpH7-B3 variant K334_02A/GpL16-k0 (antibody, human IgG1, kappa)
heavy 1: not shown
heavy 2: not shown
light: B1 light
notes: copies: 1 + 1 + 2
B6: GpH7-A5/GpH7-B3 variant K326_08L/GpL16-k0 (antibody, human IgG1, kappa)
heavy 1: not shown
heavy 2: not shown
light: B1 light
notes: copies: 1 + 1 + 2
B7: GpH7-A5/GpH7-B3 variant K334_14T/GpL16-k0 (antibody, human IgG1, kappa)
heavy 1: not shown
heavy 2: not shown
light: B1 light
notes: copies: 1 + 1 + 2
B8: GpH7-A5/GpH7-B3 variant K334_15Y/GpL16-k0 (antibody, human IgG1, kappa)
heavy 1: not shown
heavy 2: not shown
light: B1 light
notes: copies: 1 + 1 + 2
B9: GpH7-A5/GpH7-B3 variant L234_19Q/GpL16-k0 (antibody, human IgG1, kappa)
heavy 1: not shown
heavy 2: not shown
light: B1 light
notes: copies: 1 + 1 + 2
B10: GpH7-A5/GpH7-B3 variant L234_05P/GpL16-k0 (antibody, human IgG1, kappa)
heavy 1: not shown
heavy 2: not shown
light: B1 light
notes: copies: 1 + 1 + 2
B11: GpH7-A5/GpH7-B3 variant K326_04F/GpL16-k0 (antibody, human IgG1, kappa)
heavy 1: not shown
heavy 2: not shown
light: B1 light
notes: copies: 1 + 1 + 2
B12: GpH7-A5/GpH7-B3 variant K334_01G/GpL16-k0 (antibody, human IgG1, kappa)
heavy 1: not shown
heavy 2: not shown
light: B1 light
notes: copies: 1 + 1 + 2
B13: GpH7-A5/GpH7-B3 variant K326_14T/GpL16-k0 (antibody, human IgG1, kappa)
heavy 1: not shown
heavy 2: not shown
light: B1 light
notes: copies: 1 + 1 + 2
B14: GpH7-A5/GpH7-B3 variant I336_18N/GpL16-k0 (antibody, human IgG1, kappa)
heavy 1: not shown
heavy 2: not shown
light: B1 light
notes: copies: 1 + 1 + 2
B15: GpH7-A5/GpH7-B3 variant K334_04F/GpL16-k0 (antibody, human IgG1, kappa)
heavy 1: not shown
heavy 2: not shown
light: B1 light
notes: copies: 1 + 1 + 2
B16: GpH7-A5/GpH7-B3 variant K326_09D/GpL16-k0 (antibody, human IgG1, kappa)
heavy 1: not shown
heavy 2: not shown
light: B1 light
notes: copies: 1 + 1 + 2
B17: GpH7-A5/GpH7-B3 variant K334_08L/GpL16-k0 (antibody, human IgG1, kappa)
heavy 1: not shown
heavy 2: not shown
light: B1 light
notes: copies: 1 + 1 + 2
B18: GpH7-A5/GpH7-B3 variant K326_12R/GpL16-k0 (antibody, human IgG1, kappa)
heavy 1: not shown
heavy 2: not shown
light: B1 light
notes: copies: 1 + 1 + 2
B19: GpH7-A5/GpH7-B3 variant K326_06M/GpL16-k0 (antibody, human IgG1, kappa)
heavy 1: not shown
heavy 2: not shown
light: B1 light
notes: copies: 1 + 1 + 2
B20: GpH7-A5/GpH7-B3 variant K334_09D/GpL16-k0 (antibody, human IgG1, kappa)
heavy 1: not shown
heavy 2: not shown
light: B1 light
notes: copies: 1 + 1 + 2
B21: GpH7-A5/GpH7-B3 variant K326_05P/GpL16-k0 (antibody, human IgG1, kappa)
heavy 1: not shown
heavy 2: not shown
light: B1 light
notes: copies: 1 + 1 + 2
B22: GpH7-A5/GpH7-B3 variant K326_16H/GpL16-k0 (antibody, human IgG1, kappa)
heavy 1: not shown
heavy 2: not shown
light: B1 light
notes: copies: 1 + 1 + 2
B23: GpH7-A5/GpH7-B3 variant I336_15Y/GpL16-k0 (antibody, human IgG1, kappa)
heavy 1: not shown
heavy 2: not shown
light: B1 light
notes: copies: 1 + 1 + 2
B24: GpH7-A5/GpH7-B3 variant L234_13S/GpL16-k0 (antibody, human IgG1, kappa)
heavy 1: not shown
heavy 2: not shown
light: B1 light
notes: copies: 1 + 1 + 2
B25: GpH7-A5/GpH7-B3 variant K326_19Q/GpL16-k0 (antibody, human IgG1, kappa)
heavy 1: not shown
heavy 2: not shown
light: B1 light
notes: copies: 1 + 1 + 2
B26: GpH7-A5/GpH7-B3 variant K334_07I/GpL16-k0 (antibody, human IgG1, kappa)
heavy 1: not shown
heavy 2: not shown
light: B1 light
notes: copies: 1 + 1 + 2
B27: GpH7-A5/GpH7-B3 variant K334_20W/GpL16-k0 (antibody, human IgG1, kappa)
heavy 1: not shown
heavy 2: not shown
light: B1 light
notes: copies: 1 + 1 + 2
B28: GpH7-A5/GpH7-B3 variant K326_03V/GpL16-k0 (antibody, human IgG1, kappa)
heavy 1: not shown
heavy 2: not shown
light: B1 light
notes: copies: 1 + 1 + 2
B29: GpH7-A5/GpH7-B3 variant K326_10E/GpL16-k0 (antibody, human IgG1, kappa)
heavy 1: not shown
heavy 2: not shown
light: B1 light
notes: copies: 1 + 1 + 2
B30: GpH7-A5/GpH7-B3 variant L234_09D/GpL16-k0 (antibody, human IgG1, kappa)
heavy 1: not shown
heavy 2: not shown
light: B1 light
notes: copies: 1 + 1 + 2

Target: T1, FcγRIIIa (human, UniProt P08637 17-208)
T1 construct: extracellular domain; also called 3a; FcγRIIIa extracellular domain
T1 sequence (P08637 other isoform, or with tags, fused parts or gaps): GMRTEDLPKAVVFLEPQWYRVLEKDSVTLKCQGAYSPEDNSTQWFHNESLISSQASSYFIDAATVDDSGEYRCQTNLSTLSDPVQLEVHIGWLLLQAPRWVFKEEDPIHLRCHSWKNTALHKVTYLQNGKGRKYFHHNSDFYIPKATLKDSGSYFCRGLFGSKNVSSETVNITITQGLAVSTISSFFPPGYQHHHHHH
Experiment: SPR (Biacore);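 also: antibody variants captured on an SPR sensor chip, with FcγRIIIa passed over as analyte in HBS-EP+ buffer at 25 °C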

He/Con 3a | Binder
94.4 % of GpH7-A5/GpH7-B3/GpL16-k0 | B1
153 % of GpH7-A5/GpH7-B3/GpL16-k0 | B2
186 % of GpH7-A5/GpH7-B3/GpL16-k0 | B3
114 % of GpH7-A5/GpH7-B3/GpL16-k0 | B4
152 % of GpH7-A5/GpH7-B3/GpL16-k0 | B5
126 % of GpH7-A5/GpH7-B3/GpL16-k0 | B6
146 % of GpH7-A5/GpH7-B3/GpL16-k0 | B7
145 % of GpH7-A5/GpH7-B3/GpL16-k0 | B8
77.1 % of GpH7-A5/GpH7-B3/GpL16-k0 | B9
85.1 % of GpH7-A5/GpH7-B3/GpL16-k0 | B10
114 % of GpH7-A5/GpH7-B3/GpL16-k0 | B11
125 % of GpH7-A5/GpH7-B3/GpL16-k0 | B12
140 % of GpH7-A5/GpH7-B3/GpL16-k0 | B13
99.4 % of GpH7-A5/GpH7-B3/GpL16-k0 | B14
152 % of GpH7-A5/GpH7-B3/GpL16-k0 | B15
148 % of GpH7-A5/GpH7-B3/GpL16-k0 | B16
148 % of GpH7-A5/GpH7-B3/GpL16-k0 | B17
101 % of GpH7-A5/GpH7-B3/GpL16-k0 | B18
127 % of GpH7-A5/GpH7-B3/GpL16-k0 | B19
164 % of GpH7-A5/GpH7-B3/GpL16-k0 | B20
117 % of GpH7-A5/GpH7-B3/GpL16-k0 | B21
106 % of GpH7-A5/GpH7-B3/GpL16-k0 | B22
83.4 % of GpH7-A5/GpH7-B3/GpL16-k0 | B23
68.1 % of GpH7-A5/GpH7-B3/GpL16-k0 | B24
117 % of GpH7-A5/GpH7-B3/GpL16-k0 | B25
156 % of GpH7-A5/GpH7-B3/GpL16-k0 | B26
132 % of GpH7-A5/GpH7-B3/GpL16-k0 | B27
135 % of GpH7-A5/GpH7-B3/GpL16-k0 | B28
138 % of GpH7-A5/GpH7-B3/GpL16-k0 | B29
113 % of GpH7-A5/GpH7-B3/GpL16-k0 | B30

— US20260167699A1 (Chugai, published 2026)
